For orientation: Km means the substrate concentration at which the rate is half of its maximum.

Substrate in the series: CN(CC(=O)O)C(=O)CN
The experiment in a line: TP_TRANSPORTER: uptake in Caco-2 cells. The format is functional, cell-based.

B1: Solute carrier family 15 member 1 (Homo sapiens), P46059 (protein)
chain: MGMSKSHSFFGYPLSIFFIVVNEFCERFSYYGMRAILILYFTNFISWDDNLSTAIYHTFVALCYLTPILGALIADSWLGKFKTIVSLSIVYTIGQAVTSVSSINDLTDHNHDGTPDSLPVHVVLSLIGLALIALGTGGIKPCVSAFGGDQFEEGQEKQRNRFFSIFYLAINAGSLLSTIITPMLRVQQCGIHSKQACYPLAFGVPAALMAVALIVFVLGSGMYKKFKPQGNIMGKVAKCIGFAIKNRFRHRSKAFPKREHWLDWAKEKYDERLISQIKMVTRVMFLYIPLPMFWALFDQQGSRWTLQATTMSGKIGALEIQPDQMQTVNAILIVIMVPIFDAVLYPLIAKCGFNFTSLKKMAVGMVLASMAFVVAAIVQVEIDKTLPVFPKGNEVQIKVLNIGNNTMNISLPGEMVTLGPMSQTNAFMTFDVNKLTRINISSPGSPVTAVTDDFKQGQRHTLLVWAPNHYQVVKDGLNQKPEKGENGIRFVNTFNELITITMSGKVYANISSYNASTYQFFPSGIKGFTISSTEIPPQCQPNFNTFYLEFGSAYTYIVQRKNDSCPEVKVFEDISANTVNMALQIPQYFLLTCGEVVFSVTGLEFSYSQAPSNMKSVLQAGWLLTVAVGNIIVLIVAGAGQFSKQWAEYILFAALLLVVCVIFAIMARFYTYINPAEIEAQFDEDEKKNRLEKSNPYFMSGANSQKQM
Consider B1, for which the Km came to 830 µM.

These data come from ChEMBL document CHEMBL2074118, “Effects of tacrolimus and cyclosporin A on peptide transporter PEPT1 in Caco-2 cells” (Pharm Res, 2001).
